Measured values published in publication PMC6300691, “Enhancement of Heat Stability and Kinetic Parameters of the Maize Endosperm ADP-Glucose Pyrophosphorylase by Mutagenesis of Amino Acids in the Small Subunit With High B Factors” (Frontiers in Plant Science, 2018).
Where two headings read alike, the source gives them in different places.

Legend:
MP = tested on: T1, MP; experiment: Initial-rate assay without 3-PGA, ATP and G-1-P both varied (0.01-10 mM and 0.1-25 mM), global fit to a sequential mechanism.; format: biochemical; settings: read-out: G-1-P Km (absence of 3-PGA)
T1 construct: small subunit of first 198 amino acids of maize BT2 and last 277 of potato tuber small subunit, with wild type SH2

MP + SH2-E = tested on: T2, MP + SH2-E; experiment: as above; format: biochemical; settings: read-out: G-1-P Km (absence of 3-PGA)
T2 construct: chimeric small subunit MP (maize 198 / potato 277 amino acids) with SH2-E

maize endosperm AGPase [1] = experiment: Catalytic activity at 37 and 55°C (end point PPi assay); format: biochemical
Procedure: Reactions proceeded for 2, 4, 6, 8, 10, and 15 min and were terminated by boiling. Reaction mixes (1300 μl) were pre-warmed to 37°C or 55°C and the assay was started with the addition of the enzyme. Assay time points (200 μl) were removed at the appropriate time and boiled for 2 min. At 37°C all reactions were linear for 15 min; however, at 55°C rates were linear for a shorter duration. A rate was only calculated if the reactions were linear for at least 10 min.
The amount of PPi produced in the reaction was coupled to a decrease in NADH concentration. Coupling reagent contained 25 mM imidazole pH 7.4, 4 mM MgCl2, 1 mM EDTA, 0.2 mM NADH, 0.725 U aldolase, 0.4 U triose phosphate isomerase, 0.6 U glycerophosphate dehydrogenase, 1 mM fructose 6-phosphate and 0.8 μg purified PPi-PFK per reaction. Blank samples contained complete reaction mixtures minus the enzyme. Change in absorbance between the blank and the reaction was used to calculate the amount of PPi produced. All reactions were linear with time and enzyme concentration.

maize endosperm AGPase [2] = experiment: 3-PGA activation constant (Ka), Vmin and Vmax; format: biochemical; settings: change in activity from Vmin to total velocity with 3-PGA; substrates 2 mM
Text: All reactions were developed as above.

maize endosperm AGPase [3] = experiment: Kinetic values in the absence of 3-PGA; format: biochemical
Text: (1) v=VAB/(KiaKmb+KmbA+KmaB+AB

maize endosperm AGPase [4] = experiment: Pi inhibition in the presence of 3-PGA; format: biochemical
Text: (§1) (2) v=Vm(S/Ks+(βSI)/(αKiKs))/(1+S/Ks+I/Ki+SI/αKiKs)P-MT
(§2) (3) v=Vm(S/Ks)/(1+S/Ks+I/Ki+SI/αKiKs)L-MT

maize endosperm AGPase [5] = experiment: Pi inhibition in the absence of 3-PGA; format: biochemical; settings: for α / β: absence of 3-PGA
Text: as §1, §2

maize endosperm AGPase [6] = settings: cited from earlier work
maize endosperm AGPase [7] = biological target: maize endosperm AGPase; set-up: method as in Georgelis et al., 2009; Boehlein et al., 2015; settings: ref Georgelis et al., 2009; Boehlein et al., 2015; cited from earlier work
E. coli AC70R1-504 = settings: 2015, cited from earlier work
maize endosperm AGPase [8] = settings: ref Boehlein et al., 2015; cited from earlier work
[9] = growth at 37 and 42°C, SH2 variants, ref Boehlein et al.

## O=P(O)(O)O[C@H]1O[C@H](CO)[C@@H](O)[C@H](O)[C@H]1O [G-1-P, glucose-1-phosphate]
MP
  Km: 11.9 ± 3 mM
MP + SH2-E
  Km: 0.09 ± 0.008 mM

B1: wt: wild type maize endosperm AGPase: SH2 large subunit with BT2 small subunit, expressed in E. coli (protein, UniProt P55241 46-516; P55241 46-516, looked up)
Glucose-1-phosphate … 1: FGGRVAATTQCILTSDACPETLHSQTQSSRKNYADANRVSAIILGGGTGSQLFPLTSTRATPAVPVGGCYRLIDIPMSNCFNSGINKIFVMSQFNSTSLNRHIHRTYLEGGINFADGSVQVLAATQMPEEPAGWFQGTADSIRKFIWVLEDYYSHKSIDNIVILSGDQLYRMNYMELVQKHVEDDADITISCAPVDESRASKNGLVKIDHTGRVLQFFEKPKGADLNSMRVETNFLSYAIDDAQKYPYLASMGIYVFKKDALLDLLKSKYTQLHDFGSEILPRAVLDHSVQACIFTGYWEDVGTIKSFFDANLALTEQPSKFDFYDPKTPFFTAPRCLPPTQLDKCKMKYAFISDGCLLRECNIEHSVIGVCSRVSSGCELKDSVMMGADTYETEEEASKLLLAGKVPVGIGRNTKIRNCIIDMNARIGKNVVITNSKGIQEADHPEEGYYIRSGIVVILKNATINDGSVI
Glucose-1-phosphate … 2: FGGRVAATTQCILTSDACPETLHSQTQSSRKNYADANRVSAIILGGGTGSQLFPLTSTRATPAVPVGGCYRLIDIPMSNCFNSGINKIFVMSQFNSTSLNRHIHRTYLEGGINFADGSVQVLAATQMPEEPAGWFQGTADSIRKFIWVLEDYYSHKSIDNIVILSGDQLYRMNYMELVQKHVEDDADITISCAPVDESRASKNGLVKIDHTGRVLQFFEKPKGADLNSMRVETNFLSYAIDDAQKYPYLASMGIYVFKKDALLDLLKSKYTQLHDFGSEILPRAVLDHSVQACIFTGYWEDVGTIKSFFDANLALTEQPSKFDFYDPKTPFFTAPRCLPPTQLDKCKMKYAFISDGCLLRECNIEHSVIGVCSRVSSGCELKDSVMMGADTYETEEEASKLLLAGKVPVGIGRNTKIRNCIIDMNARIGKNVVITNSKGIQEADHPEEGYYIRSGIVVILKNATINDGSVI
modifications: expressed in E. coli
Maize endosperm AGPase [1]; 37°C, 5 mM ATP, 2 mM G-1-P, 2.5 mM 3-PGA, purified enzyme from E. coli
  Activity at 37°C: 5415 ± 268
Maize endosperm AGPase [1]; 55°C
  activity at 55°C (in words): not active
Maize endosperm AGPase [2]
  Vmax: 6352 ± 540
Maize endosperm AGPase [3]; Km without 3PGA versus with 3PGA
  reduction of the Km values of both substrates by binding of 3PGA: over 50 fold
Maize endosperm AGPase [3]; absence of 3-PGA, read-out: ATP Km
  Km: ~4 mM
Maize endosperm AGPase [3]; read-out: G-1-P Km (absence of 3-PGA)
  Km: 3 mM
Maize endosperm AGPase [4]; varied substrate ATP
  α: 4.61 ± 0.07
  β: 0.83 ± 0.037
Maize endosperm AGPase [4]; varied substrate G-1-P
  α: 0.90 ± 0.012
  β: 0.52 ± 0.023
Maize endosperm AGPase [5]
  Ki for Pi higher in the absence of 3PGA compared to the presence of 3PGA: 5–10 fold
Maize endosperm AGPase [5]; varied substrate ATP
  α: 0.063 ± 0.034
  β: 0.52 ± 0.17
Maize endosperm AGPase [5]; varied substrate G-1-P
  α: 0.095 ± 0.065
  β: 0.92 ± 0.31

B2: S444A: SH2 large subunit variant S444A (protein, UniProt P55241 46-516, looked up, variant S444A)
Glucose-1-phosphate …: FGGRVAATTQCILTSDACPETLHSQTQSSRKNYADANRVSAIILGGGTGSQLFPLTSTRATPAVPVGGCYRLIDIPMSNCFNSGINKIFVMSQFNSTSLNRHIHRTYLEGGINFADGSVQVLAATQMPEEPAGWFQGTADSIRKFIWVLEDYYSHKSIDNIVILSGDQLYRMNYMELVQKHVEDDADITISCAPVDESRASKNGLVKIDHTGRVLQFFEKPKGADLNSMRVETNFLSYAIDDAQKYPYLASMGIYVFKKDALLDLLKSKYTQLHDFGSEILPRAVLDHSVQACIFTGYWEDVGTIKSFFDANLALTEQPSKFDFYDPKTPFFTAPRCLPPTQLDKCKMKYAFISDGCLLRECNIEHSVIGVCSRVSSGCELKDSVMMGADTYETEEEAAKLLLAGKVPVGIGRNTKIRNCIIDMNARIGKNVVITNSKGIQEADHPEEGYYIRSGIVVILKNATINDGSVI
Maize endosperm AGPase [6]; ref Boehlein et al., 2014
  effect on 3-PGA Ka (in words): Did not alter 3-PGA Ka

B3: P372A: SH2 large subunit variant P372A (protein, UniProt P55241 46-516, looked up, variant P372A)
Glucose-1-phosphate …: FGGRVAATTQCILTSDACPETLHSQTQSSRKNYADANRVSAIILGGGTGSQLFPLTSTRATPAVPVGGCYRLIDIPMSNCFNSGINKIFVMSQFNSTSLNRHIHRTYLEGGINFADGSVQVLAATQMPEEPAGWFQGTADSIRKFIWVLEDYYSHKSIDNIVILSGDQLYRMNYMELVQKHVEDDADITISCAPVDESRASKNGLVKIDHTGRVLQFFEKPKGADLNSMRVETNFLSYAIDDAQKYPYLASMGIYVFKKDALLDLLKSKYTQLHDFGSEILPRAVLDHSVQACIFTGYWEDVGTIKSFFDANLALTEQPSKFDFYDAKTPFFTAPRCLPPTQLDKCKMKYAFISDGCLLRECNIEHSVIGVCSRVSSGCELKDSVMMGADTYETEEEASKLLLAGKVPVGIGRNTKIRNCIIDMNARIGKNVVITNSKGIQEADHPEEGYYIRSGIVVILKNATINDGSVI
Maize endosperm AGPase [6]; ref Georgelis et al., 2009, Boehlein et al., 2015
  effect on 3-PGA Ka (in words): Increased 3-PGA Ka
Maize endosperm AGPase [7]
  effect on Ki for phosphate (in words): decreased Ki for phosphate
E. coli AC70R1-504; ref Georgelis et al., 2009, Boehlein et al.
  glycogen staining (in words): reduced glycogen staining

B4: K445R: SH2 large subunit variant K445R (protein, UniProt P55241 46-516, looked up, variant K445R)
Glucose-1-phosphate …: FGGRVAATTQCILTSDACPETLHSQTQSSRKNYADANRVSAIILGGGTGSQLFPLTSTRATPAVPVGGCYRLIDIPMSNCFNSGINKIFVMSQFNSTSLNRHIHRTYLEGGINFADGSVQVLAATQMPEEPAGWFQGTADSIRKFIWVLEDYYSHKSIDNIVILSGDQLYRMNYMELVQKHVEDDADITISCAPVDESRASKNGLVKIDHTGRVLQFFEKPKGADLNSMRVETNFLSYAIDDAQKYPYLASMGIYVFKKDALLDLLKSKYTQLHDFGSEILPRAVLDHSVQACIFTGYWEDVGTIKSFFDANLALTEQPSKFDFYDPKTPFFTAPRCLPPTQLDKCKMKYAFISDGCLLRECNIEHSVIGVCSRVSSGCELKDSVMMGADTYETEEEASRLLLAGKVPVGIGRNTKIRNCIIDMNARIGKNVVITNSKGIQEADHPEEGYYIRSGIVVILKNATINDGSVI
E. coli AC70R1-504; [9]
  glycogen staining (in words): Stained darker at 37 and 42 °C

B5: S444R: SH2 large subunit variant S444R (protein, UniProt P55241 46-516, looked up, variant S444R)
Glucose-1-phosphate …: FGGRVAATTQCILTSDACPETLHSQTQSSRKNYADANRVSAIILGGGTGSQLFPLTSTRATPAVPVGGCYRLIDIPMSNCFNSGINKIFVMSQFNSTSLNRHIHRTYLEGGINFADGSVQVLAATQMPEEPAGWFQGTADSIRKFIWVLEDYYSHKSIDNIVILSGDQLYRMNYMELVQKHVEDDADITISCAPVDESRASKNGLVKIDHTGRVLQFFEKPKGADLNSMRVETNFLSYAIDDAQKYPYLASMGIYVFKKDALLDLLKSKYTQLHDFGSEILPRAVLDHSVQACIFTGYWEDVGTIKSFFDANLALTEQPSKFDFYDPKTPFFTAPRCLPPTQLDKCKMKYAFISDGCLLRECNIEHSVIGVCSRVSSGCELKDSVMMGADTYETEEEARKLLLAGKVPVGIGRNTKIRNCIIDMNARIGKNVVITNSKGIQEADHPEEGYYIRSGIVVILKNATINDGSVI
Maize endosperm AGPase [8]
  activity at 37° (in words): had higher activity at 37°
E. coli AC70R1-504; [9]
  glycogen staining (in words): Stained darker at 37 and 42°

B6: E438Q: SH2 large subunit variant E438Q (protein, UniProt P55241 46-516, looked up, variant E438Q)
Glucose-1-phosphate …: FGGRVAATTQCILTSDACPETLHSQTQSSRKNYADANRVSAIILGGGTGSQLFPLTSTRATPAVPVGGCYRLIDIPMSNCFNSGINKIFVMSQFNSTSLNRHIHRTYLEGGINFADGSVQVLAATQMPEEPAGWFQGTADSIRKFIWVLEDYYSHKSIDNIVILSGDQLYRMNYMELVQKHVEDDADITISCAPVDESRASKNGLVKIDHTGRVLQFFEKPKGADLNSMRVETNFLSYAIDDAQKYPYLASMGIYVFKKDALLDLLKSKYTQLHDFGSEILPRAVLDHSVQACIFTGYWEDVGTIKSFFDANLALTEQPSKFDFYDPKTPFFTAPRCLPPTQLDKCKMKYAFISDGCLLRECNIEHSVIGVCSRVSSGCELKDSVMMGADTYQTEEEASKLLLAGKVPVGIGRNTKIRNCIIDMNARIGKNVVITNSKGIQEADHPEEGYYIRSGIVVILKNATINDGSVI
Maize endosperm AGPase [6]; ref Georgelis et al., 2009
  effect on 3-PGA Ka (in words): Did not alter 3-PGA Ka
